Consider three molecules from paper PMC7567689, “High-level expression of aryl-alcohol oxidase 2 from Pleurotus eryngii in Pichia pastoris for production of fragrances and bioactive precursors” (Applied Microbiology and Biotechnology, 2020).

One series deals with T1, C/C=C/C=C/CO.
T1 construct: no tag mentioned
The series can be described thus: purified protein. In kind it is biochemical, Pleurotus eryngii. The following applies: 100 mM sodium phosphate pH 6.0, 25 °C, O2 as co-substrate, glycosylated enzyme.

A further series deals with T2, OC/C=C/c1ccccc1.
T2 construct: no tag mentioned
The series can be described thus: purified protein. The following applies: 100 mM sodium phosphate pH 6.0, 25 °C, O2 as co-substrate, glycosylated enzyme, substrate in DMSO. Format: biochemical, Pleurotus eryngii.

In a further series the test system is T3, OCc1ccccc1.
T3 construct: no tag mentioned
The series can be described thus: purified protein. In kind it is biochemical, Pleurotus eryngii. The following applies: 100 mM sodium phosphate pH 6.0, 25 °C, O2 as co-substrate, glycosylated enzyme.

A further series concerns T4, OCc1ccc2c(c1)OCO2.
T4 construct: no tag mentioned
The series can be described thus: purified protein. Format: biochemical, Pleurotus eryngii. The following applies: 100 mM sodium phosphate pH 6.0, 25 °C, O2 as co-substrate, glycosylated enzyme.

The target in series [1] is T5, PeAAO2 (Pleurotus eryngii, UniProt D3YBH4).
T5 construct: no tag mentioned
T5 sequence (D3YBH4 28-593 limits assumed): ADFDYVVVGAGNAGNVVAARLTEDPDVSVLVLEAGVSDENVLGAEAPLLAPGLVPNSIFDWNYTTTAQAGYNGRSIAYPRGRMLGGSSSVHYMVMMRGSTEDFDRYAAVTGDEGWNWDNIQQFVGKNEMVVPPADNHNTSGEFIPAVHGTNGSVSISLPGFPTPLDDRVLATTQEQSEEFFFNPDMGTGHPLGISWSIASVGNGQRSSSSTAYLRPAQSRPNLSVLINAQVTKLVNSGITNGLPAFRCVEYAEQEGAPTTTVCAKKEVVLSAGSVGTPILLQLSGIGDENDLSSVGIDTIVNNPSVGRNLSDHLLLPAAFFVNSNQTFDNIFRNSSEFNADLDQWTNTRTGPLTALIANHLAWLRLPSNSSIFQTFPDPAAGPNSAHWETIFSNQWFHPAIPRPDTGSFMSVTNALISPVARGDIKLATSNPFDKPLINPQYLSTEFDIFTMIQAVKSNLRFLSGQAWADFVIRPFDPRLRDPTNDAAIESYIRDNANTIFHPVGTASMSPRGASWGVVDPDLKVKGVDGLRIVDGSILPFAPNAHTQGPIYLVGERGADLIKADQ
The series can be described thus: direct UV assay of cuminaldehyde formation at […] nm, Michaelis-Menten fit. Format: biochemical. The following applies: 100 mM sodium phosphate pH 6.0, 25 °C; O2 as co-substrate; glycosylated enzyme; read-out: PeAAO2 from P. eryngii expressed in P. pastoris^a.

The target of series [2] is T5, PeAAO2. The series can be described thus: direct UV assay of veratraldehyde formation at […] nm, Michaelis-Menten fit. Format: biochemical. The following applies: 100 mM sodium phosphate pH 6.0, 25 °C; O2 as co-substrate; glycosylated enzyme; read-out: PeAAO2 from P. eryngii expressed in P. pastoris^a.

With PeAAO2 (Pleurotus eryngii), the Km is 143.6 ± 11.5 µM in the series with C/C=C/C=C/CO, 2740 ± 103 µM with OC/C=C/c1ccccc1, 599.6 ± 18.7 µM in the series on OCc1ccccc1 and 59.1 ± 3.0 µM in the series with OCc1ccc2c(c1)OCO2. Also, the kcat (usually the number of substrate molecules converted per active site and unit of time at saturation) with C/C=C/C=C/CO is 68.8 ± 0.05 s⁻¹; in the series on OC/C=C/c1ccccc1, 125.5 ± 0.1 s⁻¹; in the series with OCc1ccccc1, 12.8 ± 0.01 s⁻¹; in the series on OCc1ccc2c(c1)OCO2, 35.5 ± 0.02 s⁻¹. The kcat/Km (usually the second-order rate constant that governs catalysis at low substrate concentration) in the series on C/C=C/C=C/CO is 479000 M⁻¹ s⁻¹; in the series with OC/C=C/c1ccccc1 it was 45800 M⁻¹ s⁻¹; in the series on OCc1ccccc1 it was 21400 M⁻¹ s⁻¹; in the series with OCc1ccc2c(c1)OCO2, 600000 M⁻¹ s⁻¹.

For the molecule `CC(C)c1ccc(CO)cc1` [Cumic alcohol], at PeAAO2 [1], the Km came to 1910 ± 42.4 µM.

As for `COc1ccc(CO)cc1OC` [Veratryl alcohol], the Km at PeAAO2 [2] worked out at 447 ± 7.5 µM.
